Compound in data set [1]: CCN(CC)Cc1ccccc1CNC(=O)c1cccc(NC(=O)c2ccc(F)cc2)c1
Description: Mixed type inhibition of human BChE assessed as Vmax at 0.2 nM using BTC as substrate by Lineweaver-Burk plot analysis.

Compound in data set [2]: CCN(CC)Cc1ccccc1CNC(=O)c1cccc(NC(=O)c2ccc(F)cc2)c1
Description: Mixed type inhibition of human BChE assessed as Vmax at 0.4 nM using BTC as substrate by Lineweaver-Burk plot analysis.

Compound in data set [3]: CCN(CC)Cc1ccccc1CNC(=O)c1cccc(NC(=O)c2ccc(F)cc2)c1
Description: Mixed type inhibition of human BChE assessed as Vmax at 0.8 nM using BTC as substrate by Lineweaver-Burk plot analysis.

Compound in data set [4]: CCN(CC)Cc1ccccc1CNC(=O)c1cccc(NC(=O)c2ccc(F)cc2)c1
In words: Mixed type inhibition of human BChE assessed as Vmax at 1 nM using BTC as substrate by Lineweaver-Burk plot analysis.

Compound in data set [5]: CCN(CC)Cc1ccccc1CNC(=O)c1cccc(NC(=O)c2ccc(F)cc2)c1
In words: Mixed type inhibition of human BChE assessed as Vmax at 1.5 nM using BTC as substrate by Lineweaver-Burk plot analysis.

Compound in data set [6]: CCN(CC)Cc1ccccc1CNC(=O)c1cccc(NC(=O)c2ccc(F)cc2)c1
Description: Mixed type inhibition of human BChE assessed as Km at 0.2 nM using BTC as substrate by Lineweaver-Burk plot analysis.

Compound in data set [7]: CCN(CC)Cc1ccccc1CNC(=O)c1cccc(NC(=O)c2ccc(F)cc2)c1
In words: Mixed type inhibition of human BChE assessed as Km at 0.4 nM using BTC as substrate by Lineweaver-Burk plot analysis.

Compound in data set [8]: CCN(CC)Cc1ccccc1CNC(=O)c1cccc(NC(=O)c2ccc(F)cc2)c1
In words: Mixed type inhibition of human BChE assessed as Km at 0.8 nM using BTC as substrate by Lineweaver-Burk plot analysis.

Compound in data set [9]: CCN(CC)Cc1ccccc1CNC(=O)c1cccc(NC(=O)c2ccc(F)cc2)c1
Description: Mixed type inhibition of human BChE assessed as Km at 1 nM using BTC as substrate by Lineweaver-Burk plot analysis.

Compound in data set [10]: CCN(CC)Cc1ccccc1CNC(=O)c1cccc(NC(=O)c2ccc(F)cc2)c1
Description: Mixed type inhibition of human BChE assessed as Km at 1.5 nM using BTC as substrate by Lineweaver-Burk plot analysis.

Compound in data set [11]: CCN(CC)Cc1ccccc1CNC(=O)c1cc(C)cc(NC(=O)c2ccc(F)cc2)c1
Description: Non competitive inhibition of human BChE assessed as Vmax at 0.02 nM using BTC as substrate by Lineweaver-Burk plot analysis.

Compound in data set [12]: CCN(CC)Cc1ccccc1CNC(=O)c1cc(C)cc(NC(=O)c2ccc(F)cc2)c1
In words: Non competitive inhibition of human BChE assessed as Vmax at 0.1 nM using BTC as substrate by Lineweaver-Burk plot analysis.

Compound in data set [13]: CCN(CC)Cc1ccccc1CNC(=O)c1cc(C)cc(NC(=O)c2ccc(F)cc2)c1
Description: Non competitive inhibition of human BChE assessed as Vmax at 0.12 nM using BTC as substrate by Lineweaver-Burk plot analysis.

Compound in data set [14]: CCN(CC)Cc1ccccc1CNC(=O)c1cc(C)cc(NC(=O)c2ccc(F)cc2)c1
Description: Non competitive inhibition of human BChE assessed as Vmax at 0.15 nM using BTC as substrate by Lineweaver-Burk plot analysis.

Compound in data set [15]: CCN(CC)Cc1ccccc1CNC(=O)c1cc(C)cc(NC(=O)c2ccc(F)cc2)c1
In words: Non competitive inhibition of human BChE assessed as Km at 0.02 nM using BTC as substrate by Lineweaver-Burk plot analysis.

Compound in data set [16]: CCN(CC)Cc1ccccc1CNC(=O)c1cc(C)cc(NC(=O)c2ccc(F)cc2)c1
In words: Non competitive inhibition of human BChE assessed as Km at 0.1 nM using BTC as substrate by Lineweaver-Burk plot analysis.

Compound in data set [17]: CCN(CC)Cc1ccccc1CNC(=O)c1cc(C)cc(NC(=O)c2ccc(F)cc2)c1
In words: Non competitive inhibition of human BChE assessed as Km at 0.12 nM using BTC as substrate by Lineweaver-Burk plot analysis.

Compound in data set [18]: CCN(CC)Cc1ccccc1CNC(=O)c1cc(C)cc(NC(=O)c2ccc(F)cc2)c1
Description: Non competitive inhibition of human BChE assessed as Km at 0.15 nM using BTC as substrate by Lineweaver-Burk plot analysis.

This is an account of results in ChEMBL document CHEMBL5137095, “N-Benzyl Benzamide Derivatives as Selective Sub-Nanomolar Butyrylcholinesterase Inhibitors for Possible Treatment in Advanced Alzheimer's Disease” (J Med Chem, 2022).

B1: Cholinesterase (Homo sapiens), P06276 (protein)
chain: MHSKVTIICIRFLFWFLLLCMLIGKSHTEDDIIIATKNGKVRGMNLTVFGGTVTAFLGIPYAQPPLGRLRFKKPQSLTKWSDIWNATKYANSCCQNIDQSFPGFHGSEMWNPNTDLSEDCLYLNVWIPAPKPKNATVLIWIYGGGFQTGTSSLHVYDGKFLARVERVIVVSMNYRVGALGFLALPGNPEAPGNMGLFDQQLALQWVQKNIAAFGGNPKSVTLFGESAGAASVSLHLLSPGSHSLFTRAILQSGSFNAPWAVTSLYEARNRTLNLAKLTGCSRENETEIIKCLRNKDPQEILLNEAFVVPYGTPLSVNFGPTVDGDFLTDMPDILLELGQFKKTQILVGVNKDEGTAFLVYGAPGFSKDNNSIITRKEFQEGLKIFFPGVSEFGKESILFHYTDWVDDQRPENYREALGDVVGDYNFICPALEFTKKFSEWGNNAFFYYFEHRSSKLPWPEWMGVMHGYEIEFVFGLPLERRDNYTKAEEILSRSIVKRWANFAKYGNPNETQNNSTSWPVFKSTEQKYLTLNTESTRIMTKLRAQQCRFWTSFFPKVLEMTGNIDEAEWEWKAGFHRWNNYMMDWKNQFNDYTSKKESCVGL
As for B1, the Vmax in data set [1] turned out to be 0.7 s⁻¹; in data set [2] it was 0.86 s⁻¹; in data set [3] it was 0.63 s⁻¹; in [4], 0.61 s⁻¹; in data set [5], 0.48 s⁻¹; in [11], 0.38 s⁻¹. The Vmax in data set [12] is 0.24 s⁻¹; in [13], 0.19 s⁻¹; in data set [14], 0.15 s⁻¹. In addition, the Km in [6] is 511 s⁻¹; in data set [7], 558 s⁻¹; in data set [8], 621 s⁻¹; in data set [9] it was 684 s⁻¹; in data set [10], 707 s⁻¹; in data set [15], 205 s⁻¹. The Km in data set [16] turned out to be 204 s⁻¹; in data set [17] it was 201 s⁻¹; in [18], 201 s⁻¹.
